A short description of data set [1]: Flow cytometry, surface versus total PD-1 staining. The note with it: glycan changed form; control: sgNT Tregs.
Data set [2] in a line: Flow cytometry, PD-1+ frequency and MFI, ex vivo Tregs. The conditions noted are these: glycan changed form; control: DMSO-treated Tregs.

B1: PD-1: sgSlc35c1 (protein)
parent chain: MWVRQVPWSFTWAVLQLSWQSGWLLEVPNGPWRSLTFYPAWLTVSEGANATFTCSLSNWSEDLMLNWNRLSPSNQTEKQAAFCNGLSQPVQDARFQIIQLPNRHDFHMNILDTRRNDSGIYLCGAISLHPKAKIEESPGAELVVTERILETSTRYPSPSPKPEGRFQGMVIGIMSALVGIPVLLLLAWALAVFCSTSMSEARGAGSKDDTLKEEPSAAPVPSVAYEELDFQGREKTPELPTACVHTEYATIVFTEGLGASAMGRRGSADGLQGPRPPRHEDGHCSWPL
Regarding B1, the localisation_or_trafficking entry in data set [1] is “decreases”.

B2: PD-1: 2FF 100 μM, 6 days (protein)
parent chain: MWVRQVPWSFTWAVLQLSWQSGWLLEVPNGPWRSLTFYPAWLTVSEGANATFTCSLSNWSEDLMLNWNRLSPSNQTEKQAAFCNGLSQPVQDARFQIIQLPNRHDFHMNILDTRRNDSGIYLCGAISLHPKAKIEESPGAELVVTERILETSTRYPSPSPKPEGRFQGMVIGIMSALVGIPVLLLLAWALAVFCSTSMSEARGAGSKDDTLKEEPSAAPVPSVAYEELDFQGREKTPELPTACVHTEYATIVFTEGLGASAMGRRGSADGLQGPRPPRHEDGHCSWPL
Regarding B2, the expression_or_secretion result in data set [2] was “decreases”.

Values taken from publication PMC7615342.
